Data: patent publication US9364516B2, “Treatment of fibrosis-related disorders using fibronectin binding proteins and polypeptides” (priority 2010, dated 2016)

Key:
C57/Bl6 mice = assay: Myocardial infarction by permanent coronary ligation; format: in vivo, mouse
Protocol: C57/B16 male mice (12 wks) underwent permanent coronary ligation injury. pUR4 or control peptide (III-11C or del29) was delivered (25 mg/kg/day) in randomized fashion immediately following induction of EKG-verified MI, then once daily via IP injection for 6 days. Serial, investigator-blind echocardiography for 4 weeks was followed by sacrifice; hearts were excised, weighed, and prepared for histological processing. […] FIG. 14B show the % fractional shortening (FS) in control (III-11C, n=8) and pUR4 (n=9) groups.
The therapeutic benefit of pUR4 mediated inhibition of fibronectin polymerization was investigated in a mouse model of myocardial infarction (MI). Male C57/Bl6 mice underwent permanent coronary artery ligation injury, verified at time of surgery by EKG S-T elevation. pUR4 or III-11C were administered via i.p. injection immediately following ligation. Animals subsequently received once daily IP injection for 6 days, and were followed for 4 weeks total. Serial, investigator blind echocardiography assessed cardiac function at baseline, 2 weeks, and 4 weeks.

laminin = assay: ELISA binding of pUR4 to ECM proteins: laminin; conditions: plates coated 10 μg/mL, FIG. 7
Protocol: (§1) FIG. 7 is a graph depicting the binding of pUR4 to ECM Proteins. 96-well plates were coated with 10 μg/mL type I collagen (COL), denatured type I collagen (dCOL), fibronectin (FN), laminin (LN), vitronectin (VN), or fibrinogen (FG) at 4° C. overnight. pUR4 was added to the wells and serially diluted. Bound pUR4 was detected as described herein. Measurements were done at 405 nm on a Wallac 1420 multilabel counter. Data represents the average of duplicate determinations, and the error bars the range.
(§2) 96-well tissue culture plates were coated with 10 μg/mL type I collagen, fibronectin, laminin, fibrinogen, or vitronectin overnight at 4° C. Denatured collagens were generated as described (George et al., “Fibronectins are Essential for Heart and Blood Vessel Morphogenesis but are Dispensable for Initial Specification of Precursor Cells,” Blood 90:3073-3081 (1997), which is hereby incorporated by reference in its entirety). Plates were blocked with 1% bovine serum albumin (BSA) in Tris buffered saline (TBS) for 1 hour, then washed with TBS. pUR4 was serially diluted into coated wells, then incubated at room temperature for 90 min. Wells were washed with TBS containing 0.1% Tween 20. […] After washing, peroxidase activity was quantified by using 2,2′-azino-bis-(3-ethylbenthiazoline-[…]). […]

type I collagen = assay: ELISA binding of pUR4 to ECM proteins: collagen I; conditions: plates coated 10 μg/mL, FIG. 7
Protocol: as §1, §2

left carotid artery = assay: Detection of Texas-Red conjugated peptides in vessel wall; format: in vivo, mouse; conditions: Texas-Red conjugate 20 μM in pluronic gel, periadventitial
Protocol: FIGS. 8A-8E provide visualization of pUR4 in the vessel wall. Texas-Red (TR) conjugated pUR4 (20 μM) was embedded in pluronic gel and periadventitially delivered to the left carotid artery following ligation surgery as described infra. The right carotid artery from the same animal was used as a control. Mice were sacrificed 1, 3, and 7 days after surgery, and the carotid arteries were harvested and flash frozen. Longitudinal sections (20 μm) were immunostained with an anti-TR antibody. Representative images from the right common carotid artery (FIG. 8A), and left common carotid artery of 1 day (FIG. 8B), 3 day (FIG. 8C), and 7 day (FIG. 8D) animals are shown. The percentage area which is TR (+) (FIG. 8E) was assessed in the media of the vessels. Media=M; adventitia=Ad; lumen=L. Bar, 20 μm.
pUR4 and III-11C were conjugated to Texas-Red, as per the manufacturer's instructions (Molecular Probes/Invitrogen). 20 μM Texas-Red (TR) conjugated proteins were embedded in pluronic gel and applied to the vessel following ligation surgery. […] For quantitatively evaluating the efficacy of peptide delivery to the common carotid artery, 15-18 fields of view in the media from 2-3 mice at each time point were analyzed. The TR (+) areas were quantitated using an automated programmed segmentation procedure in ImagePro. The percentage of TR (+) area to the total medial area was determined.

[1] = 25 mg/kg/day IP, one week of treatment, up to 4 weeks post-MI
[2] = echocardiography post-MI, p<0.05

B1: pUR4: 49-mer peptide derived from the bacterial F1 adhesin, His tagged, SEQ ID NO:1; class I fibronectin polymerization inhibitor (peptide)
chain: MRGSHHHHHHGSKDQSPLAGESGETEYITEVYGNQQNPVDIDKKLPNETGFSGNMVETEDTKLN
modifications: His tag; Bacterial adhesin derived peptide pUR4
cardiac function (% fractional shortening) (C57/Bl6 mice; [1]): preserved | cardiac hypertrophy (heart weight to body weight ratio) (C57/Bl6 mice; [1]): reduced | fibronectin deposition within the infarcted area and remote myocardium (C57/Bl6 mice; 4 weeks post-MI): reduced | collagen and fibronectin deposition post-MI (C57/Bl6 mice; FIGS. 15 and 16): reduced | end systolic diameter (C57/Bl6 mice; [2]): 2.91±0.27 | end-diastolic diameter (C57/Bl6 mice; [2]): 4.12±0.22 | cardiac remodeling, infarct size and infarct expansion (C57/Bl6 mice; histology 4 weeks post-MI): reduction | binding to laminin (laminin): does not bind | binding to collagen I (type I collagen): does not bind | peptide detected in the vessel wall (media and adventitia) (left carotid artery; 1 to 3 days after application): readily detected | levels of the peptide in the vessel wall by day 7 (left carotid artery; day 7): significantly reduced
